From patent US20250230247A1 (DREN BIO, published 2025)
Residue numbers refer to the chain shown, from its start.

T1: human Dectin-1 isoform A (human, UniProt Q9BXN2 1-247)
T1 construct: also called hDectin-1a; Dectin-1 on HEK-Blue hDectin-1a cells
T1 sequence: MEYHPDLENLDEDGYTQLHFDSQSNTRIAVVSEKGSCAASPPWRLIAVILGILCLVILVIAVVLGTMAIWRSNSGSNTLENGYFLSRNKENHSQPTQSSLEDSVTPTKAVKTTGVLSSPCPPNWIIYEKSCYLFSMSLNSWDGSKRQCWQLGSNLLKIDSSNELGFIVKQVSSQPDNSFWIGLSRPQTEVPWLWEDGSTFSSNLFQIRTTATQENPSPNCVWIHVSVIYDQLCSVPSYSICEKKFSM

T2: human Dectin-1 (biosensor tests of Tables 3, 4A and 9; construct not stated) (human, UniProt Q9BXN2 66-247, limits assumed)
T2 construct: also called hDectin-1
T2 sequence (looked up): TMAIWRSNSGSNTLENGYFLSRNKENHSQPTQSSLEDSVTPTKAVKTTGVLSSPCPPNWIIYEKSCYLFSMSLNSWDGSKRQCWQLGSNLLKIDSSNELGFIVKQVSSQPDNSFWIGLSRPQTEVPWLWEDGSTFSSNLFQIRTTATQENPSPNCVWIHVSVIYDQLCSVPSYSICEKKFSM

B1: 2M24 monospecific antibody (Example 18) (antibody, V domains shown)
VH: QVQLVQSGAEVKKPGASVKVSCKSSGYTFTDYYIHWVRQAPGQGLEWMGWINPNSGDTNYAQKFQGRITMTRDTSISTAYLELSRLRSDDTAVFYCARNSGSYSFGYWGQGTLVTVSS
VL: DIQMTQSPSSVSASVGDRVTITCRASQGISSWLAWYQQKPGKAPKLLIFGASSLQSGVPSRFSGSGSGTDFTLTVSSLQPEDFATYYCQQAYSFPFTFGPGTKVDIE
notes: also called parental 2M24 antibody
B2: 2M24.119 monospecific antibody (antibody, V domains shown)
VH: B1 VH with S24A, I34M, S55E, Q65E, L81M, F94Y, S100T, S102A
VL: B1 VL with F49Y, S53D, V75I, S93G, E107K
B3: 2M24A.1.22 (Fab, V domains shown)
VH: B1 VH with Y107A
VL: B1 VL
notes: Fab; also called 2M24.1.22
B4: 2M24A.1.19 (Fab, V domains shown)
VH: B1 VH with S104A
VL: B1 VL
notes: Fab; also called 2M24.1.19
B5: 2M24A.1.27 (Fab, V domains shown)
VH: B1 VH
VL: B1 VL with P95A
notes: Fab; also called 2M24.1.27
B6: 2M24A.1.16 (Fab, V domains shown)
VH: B1 VH with S100A
VL: B1 VL
notes: Fab; also called 2M24.1.16
B7: 2M24A.1.7 hFab (Fab, V domains shown)
VH: B1 VH with D57A
VL: B1 VL with Y92F
notes: Fab; also called 2M24.1.7
B8: 2M24.116 monospecific antibody (antibody, V domains shown)
VH: B1 VH with S24A, I34M, S55E, G66E, L81M, F94Y, S100T, S102A
VL: B1 VL with F49Y, S53D, V75I, Q89H, E107K
B9: 2M24A.1.2 hFab (Fab, V domains shown)
VH: B1 VH with D57A
VL: B1 VL with Y92A
notes: Fab; also called 2M24.1.2
B10: 2M24A.1.24 (Fab, V domains shown)
VH: B1 VH
VL: B1 VL with Q90A
notes: Fab; also called 2M24.1.24
B11: 2M24A.1.25 (Fab, V domains shown)
VH: B1 VH
VL: B1 VL with S93A
notes: Fab; also called 2M24.1.25
B12: 2M24A.1.3 hFab (Fab, V domains shown)
VH: B1 VH with N99A
VL: B1 VL with Y92A
notes: Fab; also called 2M24.1.3
B13: 2M24A.1.17 (Fab, V domains shown)
VH: B1 VH with G101A
VL: B1 VL
notes: Fab; also called 2M24.1.17
B14: 2M24A.1.1 hFab (Fab, V domains shown)
VH: B1 VH with D31A
VL: B1 VL with Y92A
notes: Fab; also called 2M24.1.1
B15: 2M24A.1.29 (Fab, V domains shown)
VH: B1 VH
VL: B1 VL with T97A
notes: Fab; also called 2M24.1.29
B16: 2M24A.1.13 hFab (Fab, V domains shown)
VH: B1 VH with N99A
VL: B1 VL
notes: Fab; also called 2M24.1.13
B17: 2M24A.1.20 (Fab, V domains shown)
VH: B1 VH with F105A
VL: B1 VL
notes: Fab; also called 2M24.1.20
B18: 2M24A.1.18 (Fab, V domains shown)
VH: B1 VH with S102A
VL: B1 VL
notes: Fab; also called 2M24.1.18
B19: 2M24A.1.12 hFab (Fab, V domains shown)
VH: B1 VH with D57A
VL: B1 VL
notes: Fab; also called 2M24.1.12
B20: 2M24A.1.23 (Fab, V domains shown)
VH: B1 VH
VL: B1 VL with Q89A
notes: Fab; also called 2M24.1.23
B21: 2M24A.1.4 hFab (Fab, V domains shown)
VH: B1 VH with Y103A
VL: B1 VL with Y92A
notes: Fab; also called 2M24.1.4
B22: 2M24A.1.28 (Fab, V domains shown)
VH: B1 VH
VL: B1 VL with F96A
notes: Fab; also called 2M24.1.28
B23: 2M24A.1.21 (Fab, V domains shown)
VH: B1 VH with G106A
VL: B1 VL
notes: Fab; also called 2M24.1.21
B24: 2M24A.1.26 (Fab, V domains shown)
VH: B1 VH
VL: B1 VL with F94A
notes: Fab; also called 2M24.1.26
B25: 2M24A.1.11 hFab (Fab, V domains shown)
VH: B1 VH with D31A
VL: B1 VL
notes: Fab; also called 2M24.1.11
B26: 2M24A.1.6 hFab (Fab, V domains shown)
VH: B1 VH with D31A
VL: B1 VL with Y92F
notes: Fab; also called 2M24.1.6
B27: 2M24A.1.8 hFab (Fab, V domains shown)
VH: B1 VH with N99A
VL: B1 VL with Y92F
notes: Fab; also called 2M24.1.8
B28: 2M24A.1.5 hFab (Fab, V domains shown)
VH: B1 VH
VL: B1 VL with Y92A
notes: Fab; also called 2M24.1.5
B29: 2M24A.1.10 hFab (Fab, V domains shown)
VH: B1 VH
VL: B1 VL with Y92F
notes: Fab; also called 2M24.1.10

Legend:
human Dectin-1 isoform A = target: T1, human Dectin-1 isoform A; experiment: flow cytometry on HEK Blue Dectin 1a cells (MFI)
[1] = target: T2, human Dectin-1 (biosensor tests of …); experiment: Octet
Description: Variant binding domains were generated, and binding affinity to human Dectin-1 was measured by biosensor (Octet). Single point off rate fits (k off) were determined for each clone and compared to the parental clone (delta), as shown in FIG. 71.

[2] = target: T2, human Dectin-1 (biosensor tests of …); experiment: Octet response; on X = 340: time not given here; on X = 470: time not given here
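Wherever delta is given: Single-point dissociation rate (koff) fit for each variant binding domain, expressed as change versus the parental clone.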

Binder | EC50 (human Dectin-1 isoform A) | delta [1] | X = 290 [2] | X = 350 [2] | X = 340 [2] | X = 470 [2]
B1 | 0.343 nM | – | – | – | – | –
B2 | 0.393 nM | – | – | – | – | –
B3 | – | 15% | 0.131 | 0.112 | – | –
B4 | – | 22% | 0.126 | 0.0983 | – | –
B5 | – | 19% | – | – | 0.483 | 0.393
B6 | – | 5% | 0.12 | 0.114 | – | –
B7 | – | 22% | – | – | 0.51 | 0.398
B8 | 0.37 nM | – | – | – | – | –
B9 | – | 98% | – | – | 0.331 | 0.006
B10 | – | 36% | 0.115 | 0.073 | – | –
B11 | – | 9% | – | – | 0.475 | 0.432
B12 | – | – | – | – | 0 | 0
B13 | – | 1% | 0.131 | 0.129 | – | –
B14 | – | 98% | – | – | 0.305 | 0.006
B15 | – | 23% | – | – | 0.456 | 0.35
B16 | – | 100% | – | – | 0.028 | 0
B17 | – | 78% | 0.0981 | 0.0215 | – | –
B18 | – | 9% | 0.138 | 0.124 | – | –
B19 | – | 19% | – | – | 0.49 | 0.399
B20 | – | 18% | 0.128 | 0.104 | – | –
B21 | – | – | – | – | 0 | 0
B22 | – | 90% | – | – | 0.309 | 0.031
B23 | – | 8% | 0.125 | 0.114 | – | –
B24 | – | 92% | – | – | 0.231 | 0.018
B25 | – | 16% | – | – | 0.499 | 0.418
B26 | – | 21% | – | – | 0.493 | 0.39
B27 | – | 100% | – | – | 0.042 | 0
B28 | – | 95% | – | – | 0.3 | 0.014
B29 | – | 18% | – | – | 0.49 | 0.402
